The values below come from a protein production outcome set (Wang et al. 2014).

The data set in a line: label from the status in PepcDB records.

For the sequence “MSQAVLATETNRRQLQQIISGLSDGVILIETDKARTLLWANEAALAMHGVSTVEQLGGNLREYARRYALRYRNNHPLGLDSYPINRVAAGETFSDVVVEVQAEIDGEPRHWVHRVRSMILEDRNGAPESLVLILSDATDWASAEQRFEKTFNANPAPAVICRLGDLRYIKVNQGFLEMTGYARDQVIGRSVYELDVLEDAEHKELAVERLGQGATIPQMQAELRLPEGGSKLVIVAGQPLDINDEDCMLFSFMDLEPRRKAEIALRQSEERFAKSFRLTPVPTLVCSAEQQIVDVNEAFLDTCGYSSEELLGKTVQDIGFIAEPQAAEQLFGRLEKSGNVMGLDLKVRKKGAEQVDCVAYADTVLIQDSPCYLLVLMDISERKRSELELVGAIEEVMRDASWFSQTLIEKLANVRNTRSAQAPAVTSAELTTREREVLGLIYQGLADKEIAAQLQLAPNTVRNHVATLYSKLDVHSRGEAIVWARERGLFAGSAG”, the protein production result is recorded as “failed”.

For the sequence “MSQEYTEDKDVTLTKLSSGRRLLEALLILIALFAVWLMAALLSFNPSDPSWSQTAWHEPIHNLGGAPGAWLADTLFFIFGVMAYTIPVIIVGGCWFAWRHQSTDDYIDYFAVSLRLIGVLALILTSCGLAAINADDIWYFASGGVIGSLLSTTLQPLLHSSGGTIMLLCIWAAGLTLFTGWSWVSIAEKLGGWLLNILTFASNRTRRDDTWVDDEEYDDEYDEETDGVQRESRRARILRGALARRKRLAEKFSNPRGRQTDAALFSGKRMDDDEDIQYSARGVAADPDDVLFSGNRATQPEYDEYDPLLNGHSVTEPVAAAAAATAVTQTWAASADPIMQTPPMPGAEPVVAQPTVEWQPVPGPQTGEPVIAPAPEGYQPHPQYAQPQEAQSAPWQQPVPVASAPQYAATPATAAEYDSLAPQETQPQWQAPDAEQHWQPEPTHQPEPIAAEPSHMPPPVIEQPVTTEPEPGIEETRPARPPLYYFEEVEEKRAREREQLAAWYQPIPEPVKENVPVKPTVSVAPSIPPVEAVAAAASLDAGIKSGALAAGAAAAAPAFSLATGGAPRPQVKEGIGPQLPRPNRVRVPTRRELASYGIKLPSQRIAEEKAREAERNQYETGVQLTDEEIDAMHQDELARQFAQSQQHRYGETYQHDTQQAEDDDTAAEAELARQFAASQQQRYSGEQPAGAQPFSLDDLDFSPMKVLVDEGPHEPLFTPGVMPESTPVQQPVAPQPQPQYQQSQQPVAPQSQYQQPQQPVAPQPQPQYQQSQQPVAPQSQYQQPQQPVAPQPQYQQPQQPVAPQPQYQQPQQPTAPQPQYQQPVAPQPQYQQPQQPVAPQPQYQQPQQPTAPQDSLIHPLLMRNGDSRPLQRPTTPLPSLDLLTPPPSEVEPVDTFALEQMARLVEARLADFRIKADVVNYSPGPVITRFELNLAPGVKAARISNLSRDLARSLSTVAVRVVEVIPGKPYVGLELPNKKRQTVYLREVLDNAKFRENPSPLTVVLGKDIAGDPVVADLAKMPHLLVAGTTGSGKSVGVNAMILSMLYKAQPEDVRFIMIDPKMLELSVYEGIPHLLTEVVTDMKDAANALRWSVNEMERRYKLMSALGVRNLAGYNEKIAEAARMGRPIPDPYWKPGDSMDVQHPVLEKLPYIVVLVDEFADLMMTVGKKVEELIARLAQKARAAGIHLVLATQRPSVDVITGLIKANIPTRIAFTVSSKIDSRTILDQGGAESLLGMGDMLYSGPNSTMPVRVHGAFVRDQEVHAVVQDWKARGRPQYVDGITSDSESEGGGGGFDGGEELDALFDQAVNFVTQKRKASISGVQRQFRIGYNRAARIIEQMEAQGIVSAQGHNGNREVLAPPPFE”, the protein production entry is recorded as “failed”. Consider “MSQKGEAEGIARIRSAALFYIVAILITLVAVFAVFIPLIVSISSISSNLSNPNASSASAAAGGILSAVIGVIVVAVIVSIVILVFIILSFLRFRDGFSILQAIGRDVGIGKTGTTLILVGAILLIIPFLDIIGIILIFVGQILLGIGIYRIGEIYNNSLTKIGGILVAIPLIDITAFIGMIMTYVGVGQIQREFGMRPPLPPSSQIPSQQTGSGVLRGNGTADLNIYLQTQEQVVSAQILGTNYLTGLIVPNMLQPGFNNLTVNFNVPLNLMPNSIYVIRLNLASGRTLDVNVTFQP”, for which the protein production result is “failed”. The same measure for “MSQLPAWPRITRESTAMYHLRVPQTEEELERYYQFRWEMLRKPLHQPKESERDGWDALAHHQIVVDEEGNLVAVGRLYINADNEASIRFMAVHPSVQDKGLGTLMAMTLESVARQEGVKRVTCSAREDAVEFFAKLGFVNQGEITTPTTTPIRHFLMIKPVASLDDILHRGDWCGQLQQAWYEHIPLSEKMGVRIQQYTGQKFITTMPETGNQNPHHTVFAGSLFSLATLTGWGLIWLMLRERHLGGTIILADAHIRYSKPISGKPNAVADLGSLSGDLDRLARGKKARVQLQVELLGGETAGAIFEGIYIVLPAKPFGPYEEGGNEEE”: “failed”; for “MSQLTFWFGCALVALIAEFVSGTFYLLMVALALACGGFAAWLGAPEPWQWLIASVSGAVGLLAIHRRRRSLMPPPPPQDDPDWGQQVEIRALTTPGHARIHYRGAEWDALLMDSRLDAGSTGYISGREGNLFKISSQQPQ”: “failed”; for “MSQMSPGQARVVDPILSTHARGYRQSTLIGKKLFPVAPVAQYGGKILTFGKEAFRLYNTKRAPGANTKRIDFGYEGDPYSIVPSALEAKVPRELMRDASQVPGIDLGARSVNTVLRIMALAHEHECAQIALDPAKYNADHKVKLVGSARWTSPDSDPTKDVETAKEAIADSIGMEPNRLMLSRKALSACKYHPKLIERVKYTRAESITIDMLKALWEVEEIVVGTARVATGANDSFGDVWGPDVWLGYVSDNPDPSVEEPSFGYTYQIEGHPLVEVPYWDNNAKSWIYGVSDDNTPALSGMLAGYLIEDAGLPAALEHHHHHH”: “not failed”. The value for “MSQPLNVAVVGATGSVGEALVGLLDERDFPLHRLHLLASAESAGQRMGFAESSLRVGDVDSFDFSSVGLAFFAAAAEVSRAHAERARAAGCSVIDLSGALEPSVAPPVMVSVNAERLASQAAPFLLSSPCAVAAELCEVLAPLLATLDCRQLNLTACLSVSSLGREGVKELARQTAELLNARPLEPRLFDRQIAFNLLAQVGAVDAEGHSAIERRIFAEVQALLGERIGPLNVTCIQAPVFFGDSLSVTLQCAEPVDLAAVTRVLDATKGIEWVGEGDYPTVVGDALGQDETYVGRVRAGQADPCQVNLWIVSDNVRKGAALNAVLLGELLIKHYL” was “not failed”; that for “MSQPRNRWIVQLILALAVLAFVGVSVVPIIGALNDNTSPSNQNSASNQGDSLASNQQSKLADEVRGYELVLQREPENQTALKGLLQARLQLLALKQGNVQSVIEPLEKLAKLNPNQSEYGVLLAQAKQQIGDKEGAATAYRSILDTKPGDLKALQGMVVLLLDQQRPEAAVGLLQDTLTNAAQANTIQPGSVDVVAVQVLLGNVHAAQKRYPQAISAFDQAIQKDTKDFRPVLAKAMLLKQQGKATEAKPLFDSALALAPAQYKDEINKAATVSPAPAPPAPPAPTPESTPKQ” was “failed”; that for “MSQQQKQYDIHWLTGQFFDSSKESRYRDSIKARVRFESRLALPLVSVVVAMFGITDYNLLGLTREFYWLLTMRIAVVSSCLVLAFAIGRWGGYSRNAWLHSLPLWILATGIILIVPLRPESISTQITAVVVAIMAFYLLIPNLLTVAALASLYLTVGFLSAAAVYAGIPSENVLRVSLLLIMANIVGYCALLRIEFLQRKQFALLQDERDQNRDLLKEIKHRKSLEAQLRMVAERDALTGLDSRSHFMKRAEALLQRAQLEKTPFCLFMIDVDHFKRINDTWGHTRGDLILTKIAEVCEQSLRPTDVIGRFGGEEFVVGLPHTSPSEAQTIAERLKENVEALPLTAELSELCLSVTIGIAAAHGEEDDLDVLITRADNMLYEGKREGRNRVVMFGEGMDS” was “failed”. Turning to “MSQRVSPTLIGLFVVGALALGVVGVGAFGSGQFFEQRTTFISYFDESVNGLDVGAPVKFKGVPIGEVTDINLRVDLENETFQVPVQYAINLDPVTDTTGARLNLDDPTLLRDQIEDGLRAQLQLESIVTGKLYVELTYISDPDSAVYAQGPPSRLSIPTELSPLAKLGEGASGLVTNLRQFDVTQINENLVTFLVNANDKLEALDAEAINRSALSTIESVRKVVESKEVRTALQDMPKATERLRATIKDAQALIQRLDRGVEPTADELEKTSRQLRATLKRMRRTMDEVDQTLSPNSGIGYQMNEALSNLSEATEALRVLVQSLERNPSMFLRGREEPPPSNQQ”, the protein production entry is “failed”. As for “MSQTDELTGTANRRFVFAKLALQVEQVSKGLEAPFCLCTLDIDFFKQINDRFGHKCGDAVLRDFVGIAHSVIRRVDCFGRIGGEEFMLILPRSSIAEGREIVERLLQKVRLSRPLSEFPDFSYSCSAGMTVFRMMENADDVFMRADQALYAAKEKGRDRLLAVTLEHHHHHH”, the protein production result is recorded as “failed”.

Regarding “MSQTTVVNGVNVDQLMATIEQIKAKPEIAQFKFRATNQWMGGTHNQATIKDFYGACAEDDTRKPMVFDLDEPPVLLGENRGANPVEYLLVALSGCLTTSLVAHAAARGIALRGVKSRYEGDIDLRGFLGLSEEVPVGYREIRVFFSIDADLTDGQKEELIRMAQKYSPVYNTVAKPVPVAVLLDRG”, the protein production result is listed as “not failed”.

Take “MSQWITEWIPQVMNQLGYGGISLLMFLENLFPPIPSELIMPLAGFAVAQGKLELFPAIVAGIIGTILGAYPWYYIGKWVSEERLEQLADRYGKWIGLDAKDIHKSNVWFGRYGHQSVFFGRLVPGIRTIVSLPAGVNAMGLISFTLYSLGGISLWVTFLASAGYKLGDHYELVEQYLGPVSKIVLVSIVAILVLLIVRKQLRRRA”: the protein production entry is reported as “failed”. The value for “MSQYQRLLLIADPQQHQSPAARRAVALARASGAALHALVFVEPPARTYLWEEHLEDSEREAYLQRHERWLQVEAQWMAEEGVQVTTQVIWSTQVLKDMLAYIDEFRPDLLIKDVTLESALKRVFVTPLDCHLLREAPVPVHLVNDAPHKLPRRIVAAVDPAQSDTQIRGLNTQIIQTAHALALQCDAQLHLLYAYDLMPMLDGVAPVASTAWSVNCLDELRDSLHKEFERLGDEHNVPQEFRHFIMGPPVPGIAQFVDEYLVDVVVMGTVHRTGFGRLIGSTTERALYSMPGSILAVKASGAA” was “failed”; that for “MSRAEKSTAEQSGHIQHGVRKAAGVVFMVFGTMCFASKSIFVKWAYEQGAQPEAVLLYRQLFAAPLFWLIFIVYRSKLPAKPEKAEIFKACAAGLLCFFLSPLLDFIGLHGVSATVERMIVMSYPMFVLIITAFVNKKMVSGKTFAAILLVNAGLFLAVGGWDVQALEANLSGAFLILLSAVAYAAYLVVAGGLVRQIGGIRMNAYGMSAASLAMAGYALLRSLREQPGIVLSYPPAMYGFFMIIAAVTTVIPFLFMLEGMKRIGAERGAVISMIGPVLTIFGGVLFLNERLTPVQWLGCLLVHLTVSLLEYRK” was “failed”. For “MSRDPILSLPWPDARPLPDTFFDRDALLVARELLGKVIRHRQGNLWLAARIIETEAYYLEEKGSHASLGYTEKRKALFLDGGHIYMYYARGGDSLNFSAGGPGNAVLIKSGHPWLDRISDHTALERMQSLNPDSQGRPREIGRLCAGQTLLCKAMGLKVPEWDAQRFDPQRLFVDDVGERPSQVIQAARLGIPKGRDEHLPYRFVDAAFAAFCTRNPLRRGQVAGRDYHLLGHQDPHLQ”, the protein production entry is listed as “failed”. The value for “MSRDTERYPVKHANSLWQIYKTVPFWKVVKNFVVIQLARYTPFVSVKNWLYRTFLKMDVGEKTAFALMVMPDIMFPERISVGRNSIIGYNTTILAHEYLIEEYRLGDVIIGDEVMVGANTTILPGVTIGDRAIIAAGTVVHKNVPPGAFVGGNPMQVIKQLEHHHHHH” was “failed”.

“MSREDELLEKLDECENATAFLQVSNKIINLKLKALLPSVFVQDDLVKEYAVDPLLREDGPLVTTDVVSKLMFAMGKISLQTYADIGLYDQVLEYVVTQPEKIAFTDDVIYDFIKNQAVLSSQQDCFYLESINQLKFSSFESFSQMRYESLIKTVLKLSCEMLIERIEEEINQ”: the protein production entry is “not failed”. Regarding “MSRGLLEACIEFIRETPAGDALRIVAYEFTFKRILLELKAALERGVDVRIVYHATTANEKAIADAKLPENSKGVQILFKRTRPQTPHNKFIVRLKKGKTPVSVWTGSTNFTPSGFLGQTNVGHKVTDGDIAKIYLQLWEGLKADPDDFDATQLEHHHHHH”, the protein production entry is “not failed”.
